{"source": "patent US20070009975A1", "about": "(DAKOCYTOMATION DENMARK A S, published 2007)", "key": {"Hsp60 of H. pylori": {"target": "T1, Hsp60 of H. pylori (Helicobacter pylori, UniProt P42383 1-546)", "T1 construct": "Purified as an oligomer", "T1 sequence (P42383 whole entry)": "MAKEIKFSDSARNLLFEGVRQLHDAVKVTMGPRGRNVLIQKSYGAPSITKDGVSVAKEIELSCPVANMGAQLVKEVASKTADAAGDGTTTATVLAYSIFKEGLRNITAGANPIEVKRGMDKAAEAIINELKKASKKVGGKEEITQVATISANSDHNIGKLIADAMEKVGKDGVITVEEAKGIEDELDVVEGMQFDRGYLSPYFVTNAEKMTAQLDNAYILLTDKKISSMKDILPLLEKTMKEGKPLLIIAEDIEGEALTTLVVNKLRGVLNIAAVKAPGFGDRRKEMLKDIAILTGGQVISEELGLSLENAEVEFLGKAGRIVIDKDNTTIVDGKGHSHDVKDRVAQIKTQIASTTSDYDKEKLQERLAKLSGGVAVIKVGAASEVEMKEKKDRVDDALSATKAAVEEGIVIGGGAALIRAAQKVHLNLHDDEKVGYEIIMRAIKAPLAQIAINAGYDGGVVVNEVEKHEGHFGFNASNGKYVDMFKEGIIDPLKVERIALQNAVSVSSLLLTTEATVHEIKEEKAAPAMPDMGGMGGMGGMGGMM", "assay": "sandwich ELISA: polyclonal rabbit anti-H. pylori antigen as catcher, antigen diluted 1:2 from 50 ng/ml, mAb supernatant as detector; lowest antigen concentration with extinction >= 2x control", "procedure": "(§1) Between the single steps the ELISA plate was washed 2 to 3 times with 300 μl PBS with 0.025% Tween (washing buffer) (vol.:vol.). The ELISA plates (MaxiSorb; Nunc) were coated for 1 hour at 37° C. with 100 μl of a solution of a polyclonal rabbit-anti-H. pylori antigen (pAK; approx. 10 μg antibody/ml carbonate buffer, 0.1 M, pH 9.5). In order to block the binding-sites that are still free 200 μl 150 mM PBS with 2% skimmed-milk powder (weight:volume) were pipetted per dish and incubated for 30 min at room temperature. 50 ng/ml purified H. pylori antigens solved in 150 mM PBS were diluted adding 0.1% skimmed-milk powder in 1:2 steps. The buffer served as a negative control. Then, 100 μl culture supernatant diluted 1:10 of the mAK against the same antigen, which is to be analysed, was added and incubated for 30 for 60 min at room temperature. […] The lowest concentration in which an extinction was still detected that was larger than or the same as twice the control was accepted as detection limit."}, "[1]": {"target": "β-urease (large subunit) of H. pylori (Helicobacter pylori, UniProt P69996 1-569)", "sequence (P69996 whole entry)": "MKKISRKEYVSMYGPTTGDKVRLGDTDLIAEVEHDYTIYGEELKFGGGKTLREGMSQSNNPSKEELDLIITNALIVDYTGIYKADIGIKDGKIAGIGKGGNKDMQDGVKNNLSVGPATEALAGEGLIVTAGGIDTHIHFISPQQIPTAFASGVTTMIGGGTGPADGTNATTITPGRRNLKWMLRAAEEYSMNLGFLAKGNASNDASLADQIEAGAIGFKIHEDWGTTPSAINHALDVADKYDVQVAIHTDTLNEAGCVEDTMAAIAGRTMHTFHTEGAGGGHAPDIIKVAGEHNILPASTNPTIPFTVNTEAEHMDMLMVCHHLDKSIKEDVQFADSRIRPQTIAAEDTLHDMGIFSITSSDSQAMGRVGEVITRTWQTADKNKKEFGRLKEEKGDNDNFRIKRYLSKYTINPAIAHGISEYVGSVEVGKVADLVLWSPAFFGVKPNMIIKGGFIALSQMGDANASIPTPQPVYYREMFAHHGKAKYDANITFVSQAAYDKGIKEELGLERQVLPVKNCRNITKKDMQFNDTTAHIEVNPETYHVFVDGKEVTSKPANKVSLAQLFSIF", "assay": "sandwich ELISA: polyclonal rabbit anti-H. pylori antigen as catcher, antigen diluted 1:2 from 50 ng/ml, mAb supernatant as detector; lowest antigen concentration with extinction >= 2x control", "procedure": "as §1"}, "[2]": {"target": "H. pylori urease (oligomeric, purified) (Helicobacter pylori, UniProt P14916 1-238; P69996 1-569)", "sequence (P14916 whole entry, chain 1 of 2)": "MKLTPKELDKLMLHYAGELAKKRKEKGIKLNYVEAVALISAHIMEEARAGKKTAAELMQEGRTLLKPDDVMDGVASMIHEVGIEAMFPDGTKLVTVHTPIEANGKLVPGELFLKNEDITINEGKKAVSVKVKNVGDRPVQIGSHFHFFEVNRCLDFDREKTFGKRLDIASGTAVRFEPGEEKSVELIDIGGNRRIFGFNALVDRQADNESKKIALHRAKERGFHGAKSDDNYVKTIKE", "sequence (P69996 whole entry, chain 2 of 2)": "as the sequence (P69996 whole entry) above", "assay": "SPR (BIAcore), mAb captured by rabbit anti-mouse antibody, H. pylori antigen injected; unit inferred", "procedure": "First, a polyclonal rabbit-anti-mouse antibody was immobilised on the dextran matrix of the BIAcore CM5 glass carrier chip. By adding the first H. pylori antigen-specific monoclonal antibody (1. MAK; 100 μg/ml; 10 μl), it reacted with the immobilised catching antibody and the respective change was measured at the detector (ΔRU₁; RU Resonance Units). After adding the H. pylori antigen (45 μg/ml; 5 μl), it reacted with the first mAK. Then, the remaining free catching antibody was blocked with an unspecific mouse-antibody (1 mg/ml; 10 μl) and oligomeric epitopes by adding another first mAK (100 μg/ml; 10 μl). After the reaction then following of the second H. pylori-antigen-specific antibody (2nd mAK; 100 μg/ml; 10 μl) with the bound antigen, the change in the signal of the detector (ΔRU₂) was determined anew and was compared in percentage to the change at the detector after adding the 1st mAK (ΔRU₂/ΔRU₁). A ratio of ΔRU₂/ΔRU₁<10% indicated overlapping epitopes."}, "[3]": {"target": "T2, alkylhydroperoxide-reductase of H. pylori (26 kDa-protein) (Helicobacter pylori, UniProt P21762 1-198)", "T2 construct": "Purified as an oligomer; also called 26 kDa-antigen; Alkylhydroperoxide reduktase", "T2 sequence (looked up)": "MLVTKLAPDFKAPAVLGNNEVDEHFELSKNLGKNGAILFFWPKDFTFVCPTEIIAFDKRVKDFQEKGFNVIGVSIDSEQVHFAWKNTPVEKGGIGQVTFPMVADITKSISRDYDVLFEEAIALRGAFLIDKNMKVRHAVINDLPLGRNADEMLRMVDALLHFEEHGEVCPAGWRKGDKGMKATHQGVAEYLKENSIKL", "assay": "sandwich ELISA: polyclonal rabbit anti-H. pylori antigen as catcher, antigen diluted 1:2 from 50 ng/ml, mAb supernatant as detector; lowest antigen concentration with extinction >= 2x control", "procedure": "as §1"}}}
{"binder": "HP16m/2A5-E6-E5 (antibody, mouse IgG1, V domains shown, also called DSM ACC2356) VH: VQLLEESGPGLVAPSQSLSITCTVSGFSLSRYSVHWVRQPPGKGLEWLGMIWGGGSTDYNSGLKSRLSISNDNSKSQVFLKMNSLQTDDTAIYYCARNMGGRYPDYFDYWGQGTTLTVSS VL: DIVLTQSPASLAVSLGQRATISCRASKSVSTSGYSYIHWYQQKPGQPPKLLIFLASNLESGVPARFSGSGSGTDFTLNIHPVEEEDAATYHCQHSRELPLTFGAGTKLELK", "values": [{"measurement": "NWG (detection limit)", "setting": "Hsp60 of H. pylori", "result": 3, "unit": "ng Ag/ml"}]}
{"binder": "HP9.1m/3C2-F8-E2 (antibody, mouse IgG1, V domains shown, also called DSM ACC2362; second monoclonal antibody that is specific to urease) VH: VQLLEESGGGLVKPGGSLQLSCSASGFTFSSHFMSWVRQTPEKRLEWVASISSGGDSFYPDSLKGRFAISRDNARNILFLQMSSLRSEDSAMYFCTRDYSWYALDYWGQGTSVTVSS VL: ELQMTQSPSSLSASLGDTITITCHASQNINVWLSWYQQKPGDIPKLLIYKASNLHTGVPSRFSGSGSGTGFTLVISSLQPEDIATYYCQQGRSYPLTFGAGTKLELK", "values": [{"measurement": "NWG (detection limit)", "setting": "[1]", "result": 1.2, "unit": "ng Ag/ml"}]}
{"binder": "HP8m/4H5-D4-C9 (antibody, V domains shown, also called DSM ACC2360; first monoclonal antibody that is specific to urease) VH: VQLLEQSGAELVKPGASVKISCKASGYAFSTSWMNWVKQRPGKGLEWIGRIYPGDGDTNYNGKFKGKATLTADKSSSTAYMQLNSLTSEDSAVYFCVREDAYYSNPYSLDYWGQGTSVTVSS VL: DILLTQSPAILSVSPGERVSFSCRASQSIGTRIHWYQQRTNGSPRLLIKYGSESISGIPSRFSGSGSGTDFSLSINSVESEDIADYYCQQSNTWPLTFGAGTKLELK", "values": [{"measurement": "koff", "setting": "[2]", "result": "4.5e-06", "unit": "s⁻¹"}, {"measurement": "NWG (detection limit)", "setting": "[1]", "result": 0.6, "unit": "ng Ag/ml"}]}
{"binder": "HP15m/3E8-D9-D6 (antibody, IgG1, V domains shown, Murine; also called DSM ACC2355) VH: VQLLEESGGGLVQPTGSLKLSCAASGFTFNSYAMYWVRQAPGKGLEWVARIRSKSDNYATYYANSVKDRLTISRDDSQNMLYLQMNNLKTEDTAMYYCVRDHDKFPFYYALDYWGPGTLVTVSS VL: ELVLTQSPTIMSASLGERVTMTCTASSSVSSSYLHWYQQKPGSSPKLWIYSTSNLASGVPVRFSGSGSVTSYSLTISSMEAEDAATYYCHQYHRSPPTFGGGTKLEIK", "values": [{"measurement": "NWG (detection limit)", "setting": "[3]", "result": 0.6, "unit": "ng Ag/ml"}]}
